According to US20260242485A1 (LEPU BIOPHARMA, published 2026):

T1: human CD32B expressed on CHO-K1 cells (human, UniProt P31994 43-310)
T1 construct: whole, on cells; also called hCD32B
T1 sequence (looked up): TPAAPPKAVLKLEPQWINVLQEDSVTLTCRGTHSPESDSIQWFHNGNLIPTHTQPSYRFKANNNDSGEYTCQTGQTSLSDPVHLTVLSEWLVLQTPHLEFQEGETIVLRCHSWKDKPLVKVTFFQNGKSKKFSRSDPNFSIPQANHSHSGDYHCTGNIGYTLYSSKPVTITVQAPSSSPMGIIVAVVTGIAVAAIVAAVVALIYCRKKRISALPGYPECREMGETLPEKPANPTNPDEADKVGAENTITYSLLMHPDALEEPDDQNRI


How the values were obtained:
[1] = molecular target: T2, human CD16A-158F expressed on CHO-K1 cells (human, UniProt P08637 17-254); experiment: flow cytometry, CHO-K1-hCD16A-158F cells, Alexa Fluor 647 anti-human IgG Fc, geometric mean
T2 construct: whole, on cells
Protocol: (§1) In order to evaluate the binding activity of the chimeric mAbs to human CD16A expressed on cells, cell-based binding assay was employed as followed. […] The antibody dilutions were incubated with 1×10⁵ indicated cells in the 96-well microplate for one hour at 4° C. The antibodies binding to the antigen on the cell surface were detected with PE fluorophore-conjugated anti-human IgG Fc secondary antibodies (ThermoFisher scientific, Cat. No. 12-4998-82) at a dilution rate of 1:1000. Cells were analyzed by flow cytometer LSRFortessa Cell Analyzer (BD Biosciences). Data were analyzed with Flowjo 10.0 software. The graph and statistics analysis were generated with four-parameter nonlinear regression curve fit in Graphpad Prism 9 software.
(§2) The assay was performed following the protocol described above. The antibodies binding to the antigen on the cell surface were detected with Alexa Fluor® 647 AffiniPure™ F(ab′)₂ fragment goat anti-human IgG Fcγ fragment specific secondary antibody (Jackson Immuno Research, Cat. No. 109-606-098) at a dilution rate of 1:2000.

[2] = molecular target: T2, human CD16A-158F expressed on CHO-K1 …; experiment: flow cytometry, CHO-K1-hCD16A-158F cells, geometric mean
Protocol: as §1
(§3) The assay was performed following the protocol described above.

[3] = molecular target: T3, human CD16A-158V expressed on CHO-K1 cells (human, UniProt P08637 17-254); experiment: flow cytometry, CHO-K1-hCD16A-158V cells, geometric mean
T3 construct: whole, on cells; also called hCD16A-158V; CHO-K1-hCD16A-158V

[4] = molecular target: T4, Recombinant cyno CD16 ECD his tag protein (cynomolgus, UniProt Q8SPW2 17-208); experiment: ELISA, plate-coated his-tagged antigen 2 ug/mL
T4 construct: extracellular domain; Bought protein; also called cynoCD16-his; cynomolgus CD16-his
Protocol: (§4) In order to determine the binding ability of the chimeric Abs to human CD16A protein, ELISA-based binding assay was performed as followed. […] The mixture was incubated for 1 hour at room temperature (RT). The primary antibody was recognized by a detective antibody against human IgG Fc which was conjugated with horseradish peroxidase (HRP) (Jackson Immuno, Cat. No. 109-035-008). Tetramethylbenzidine (TMB), a substrate of HRP, was added to the wells to visualize the binding signal. After sufficient color development, stop solution was added to the wells. The absorbance of the signal was detected at 450 nm with Envision multilabel plate readers (PerkinElemer). The graph and statistics analysis were generated with four-parameter nonlinear regression curve fit in Graphpad Prism 9 software.
(§5) In order to determine the cross reactivity of the chimeric Abs to cynomolgus CD16, ELISA binding assay was performed as described above. Recombinant cyno CD16 ECD his tag protein (cynoCD16-his, Acro Bio, Cat. No. FC6-C52H9) was used as the coating antigen at 2 μg/mL.

hCD16A-158V-his protein [5] = molecular target: T5, hCD16A-158V-his protein (human, UniProt P08637 17-208); experiment: ELISA, plate-coated his-tagged antigen 2 ug/mL
T5 construct: extracellular domain; Bought protein; also called human CD16A-158V-his; Human CD16A-158V (protein)
Protocol: as §4, §5

hCD16A-158F-his protein [6] = molecular target: T6, hCD16A-158F-his protein (human, UniProt P08637 17-208); experiment: ELISA, plate-coated his-tagged antigen 2 ug/mL
T6 construct: Bought protein
Protocol: as §4, §5

hCD16A-158V-his protein [7] = molecular target: T5, hCD16A-158V-his protein; experiment: SPR (Biacore 8K), antibody captured on Protein A chip, antigen at 50 nM
Protocol: (§6) The binding affinity of the chimeric antibodies to human CD16A was determined with Biacore™. Briefly, the antibodies were captured with a Protein A chip. […] The antigen was allowed to dissociate for 500 s. The experiment was carried out on a Biacore™ 8K. Data analysis was carried out using Biacore™ 8K evaluation software.

hCD16A-158F-his protein [8] = molecular target: T6, hCD16A-158F-his protein; experiment: as above
Protocol: as §6

[9] = molecular target: T1, human CD32B expressed on CHO-K1 cells; experiment: flow cytometry, CHO-K1-hCD32B cells, geometric mean
Protocol: as §1
(§7) To exclude the non-specific binding of the CD16A chimeric antibody to human CD16B and CD32B expressed on cells, cell-based binding assay was performed as described above. Firstly, CHO-K1 cells were stably transferred with one human CD16B spliced isoform hCD16B-NA1 and human CD32B. Then, the cells were incubated with the indicated concentrations of CD16A chimeric antibodies.

[10] = molecular target: T2, human CD16A-158F expressed on CHO-K1 …; experiment: flow cytometry, CHO-K1-hCD16A-158F cells, geometric mean; remark: listed apart in the source
[11] = molecular target: T7, human CD16B-NA1 expressed on CHO-K1 cells (human, UniProt O75015 17-200); experiment: flow cytometry, CHO-K1-hCD16B-NA1 cells, geometric mean
T7 construct: whole, on cells; also called hCD16B-NA1; CHO-K1-hCD16B-NA1
Protocol: as §1, §7

[12] = molecular target: T8, cynomolgus CD16 expressed on CHO-K1 cells (cynomolgus, UniProt Q8SPW2 17-254); experiment: flow cytometry, CHO-K1-cyno CD16 cells, geometric mean
T8 construct: whole, on cells; also called cyno CD16; CHO-K1-cynoCD16
Protocol: as §1, §3

[13] = molecular target: T8, cynomolgus CD16 expressed on CHO-K1 …; experiment: flow cytometry, CHO-K1-cyno CD16 cells, Alexa Fluor 647 anti-human IgG Fc, geometric mean
Protocol: as §1, §2

T2 sequence (P08637 17-254): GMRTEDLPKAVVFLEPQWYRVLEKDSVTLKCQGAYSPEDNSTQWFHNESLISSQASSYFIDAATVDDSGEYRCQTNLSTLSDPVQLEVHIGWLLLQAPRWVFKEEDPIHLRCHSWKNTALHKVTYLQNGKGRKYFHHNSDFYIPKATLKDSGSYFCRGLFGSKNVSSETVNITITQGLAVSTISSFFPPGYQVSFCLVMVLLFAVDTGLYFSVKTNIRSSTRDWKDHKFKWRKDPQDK
T6 sequence (P08637 17-208 limits assumed): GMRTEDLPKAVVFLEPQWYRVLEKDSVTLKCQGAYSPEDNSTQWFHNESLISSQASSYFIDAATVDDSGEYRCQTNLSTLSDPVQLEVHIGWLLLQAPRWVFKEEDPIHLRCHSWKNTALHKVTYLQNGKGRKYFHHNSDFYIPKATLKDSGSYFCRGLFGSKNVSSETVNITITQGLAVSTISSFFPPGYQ
T8 sequence (Q8SPW2 17-254): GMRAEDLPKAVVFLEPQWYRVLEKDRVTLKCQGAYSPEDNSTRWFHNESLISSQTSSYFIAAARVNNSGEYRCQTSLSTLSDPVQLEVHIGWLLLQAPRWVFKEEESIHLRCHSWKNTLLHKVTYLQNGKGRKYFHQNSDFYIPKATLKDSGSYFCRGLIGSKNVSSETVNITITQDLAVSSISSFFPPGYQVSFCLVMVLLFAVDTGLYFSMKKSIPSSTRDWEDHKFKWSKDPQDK
T5 sequence (P08637 17-208 F176V): as the sequence (P08637 17-208 limits assumed) above, with F160V counted along it
T7 sequence (O75015 other isoform, or with tags, fused parts or gaps): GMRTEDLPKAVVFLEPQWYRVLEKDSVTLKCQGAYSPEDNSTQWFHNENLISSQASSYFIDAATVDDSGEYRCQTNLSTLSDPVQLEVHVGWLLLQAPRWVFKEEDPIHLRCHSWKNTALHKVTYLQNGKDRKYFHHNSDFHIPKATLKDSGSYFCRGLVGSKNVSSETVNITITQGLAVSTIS
T3 sequence (P08637 17-254 F176V): as the sequence (P08637 17-254) above, with F160V counted along it
T4 sequence (Q8SPW2 17-208): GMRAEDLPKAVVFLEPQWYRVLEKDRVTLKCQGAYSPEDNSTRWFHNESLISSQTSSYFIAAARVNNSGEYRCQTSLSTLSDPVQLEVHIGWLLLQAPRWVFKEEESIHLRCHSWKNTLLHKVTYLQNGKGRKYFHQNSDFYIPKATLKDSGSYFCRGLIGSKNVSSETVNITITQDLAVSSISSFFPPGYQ

Row | EC50 (read off the curve) [1] [nM] | EC50 (read off the curve) [2] [nM] | EC50 (read off the curve) [3] [nM] | EC50 [4] [nM] | EC50 (hCD16A-158V-his protein [5]) [nM] | EC50 (hCD16A-158F-his protein [6]) [nM] | Kd (hCD16A-158V-his protein [7]) [nM] | koff (hCD16A-158V-his protein [7]) [s⁻¹] | kon (hCD16A-158V-his protein [7]) [M⁻¹ s⁻¹] | Kd (hCD16A-158F-his protein [8]) [nM] | koff (hCD16A-158F-his protein [8]) [s⁻¹] | kon (hCD16A-158F-his protein [8]) [M⁻¹ s⁻¹] | binding result [9] | EC50 (read off the curve) [10] [nM] | binding result [11] | EC50 (read off the curve) [12] [nM] | EC50 (read off the curve) [13] [nM] | Binder
1 | ~0.4 | ~0.4 | ~0.5 | 0.73 | 0.12 | 0.32 | 1.68 | 0.00135 | 804000 | 2.23 | 0.002 | 897000 | no binding (tested: 100 nM) | ~0.5 | no binding (tested: 100 nM) | ~0.7 | ~1 | P2C47-hIgG1 LALAPG (antibody, also called benchmark antibody P2C47) heavy: QVQLVQSGAEVKKPGESLKVSCKASGYTFTSYYMHWVRQAPGQGLEWMGAIEPMYGSTSYAQKFQGRVTMTRDTSTSTVYMELSSLRSEDTAVYYCARGSAYYYDFADYWGQGTLVTVSSASTKGPSVFPLAPSSKSTSGGTAALGCLVKDYFPEPVTVSWNSGALTSGVHTFPAVLQSSGLYSLSSVVTVPSSSLGTQTYICNVNHKPSNTKVDKKVEPKSCDKTHTCPPCPAPEAAGGPSVFLFPPKPKDTLMISRTPEVTCVVVDVSHEDPEVKFNWYVDGVEVHNAKTKPREEQYNSTYRVVSVLTVLHQDWLNGKEYKCKVSNKALGAPIEKTISKAKGQPREPQVYTLPPSREEMTKNQVSLTCLVKGFYPSDIAVEWESNGQPENNYKTTPPVLDSDGSFFLYSKLTVDKSRWQQGNVFSCSVMHEALHNHYTQKSLSLSPGK light: SYVLTQPSSVSVAPGQTATISCGGHNIGSKNVHWYQQRPGQSPVLVIYQDNKRPSGIPERFSGSNSGNTATLTISGTQAMDEADYYCQVWDNYSVLFGGGTKLTVLGQPKANPTVTLFPPSSEELQANKATLVCLISDFYPGAVTVAWKADGSPVKAGVETTKPSKQSNNKYAASSYLSLTPEQWKSHRSYSCQVTHEGSTVEKTVAPTECS
2 | ~0.4 | ~0.4 | ~0.5 | 0.68 | 0.1 | 0.33 | 1.86 | 0.00655 | 3.52e+06 | 1.17 | 0.00455 | 3.9e+06 | no binding (tested: 100 nM) | ~0.5 | no binding (tested: 100 nM) | ~0.7 | ~1 | 45H6E8-hIgG1 LALAPG (antibody, also called 45H6E8 chimeric antibody) heavy: EVQLQQSGAELVRSGASVKLSCTASGFNIKDYYMQWVKQRPEQGLEWIGWIDPENGDTEYAPKFQGKATMTADTSSNTAYLQLSSLTSEDTAVYYCTTGGNYVDWGQGTTLTVSSASTKGPSVFPLAPSSKSTSGGTAALGCLVKDYFPEPVTVSWNSGALTSGVHTFPAVLQSSGLYSLSSVVTVPSSSLGTQTYICNVNHKPSNTKVDKKVEPKSCDKTHTCPPCPAPEAAGGPSVFLFPPKPKDTLMISRTPEVTCVVVDVSHEDPEVKFNWYVDGVEVHNAKTKPREEQYNSTYRVVSVLTVLHQDWLNGKEYKCKVSNKALGAPIEKTISKAKGQPREPQVYTLPPSREEMTKNQVSLTCLVKGFYPSDIAVEWESNGQPENNYKTTPPVLDSDGSFFLYSKLTVDKSRWQQGNVFSCSVMHEALHNHYTQKSLSLSPGK light: DIVMTQSQKFMSTSVGDRVSITCKASQNVGTAVAWYQQKPGQSPKLLIYSASNRYTGVPDRFTGSGSGTDFTLTISNMQSEDLADYFCQQYSSYPLLTFGAGTNLELKRTVAAPSVFIFPPSDEQLKSGTASVVCLLNNFYPREAKVQWKVDNALQSGNSQESVTEQDSKDSTYSLSSTLTLSKADYEKHKVYACEVTHQGLSSPVTKSFNRGEC
